Stoichiometry N data for one substance are collected here from article doi:10.1101/2023.10.23.563578.

The target of this assay is recombinant Ena3A (major subunit of L-ENA fibers) (Bacillus paranthracis NVH 0075-95). The experiment in a line: cryo-EM structure.

For “recombinant Ena3A (major subunit of L-ENA fibers) (natural protein)”, the stoichiometry N stood at 7.

By stoichiometry N is commonly meant a count of units in the complex or per binding partner.
